Assay results taken from US20250283117, “RNA-GUIDED NUCLEASES AND ACTIVE FRAGMENTS AND VARIANTS THEREOF AND METHODS OF USE” (Life Edit Therapeutics, Inc., published 2025).

What follows are sequences tested on T1, APG05459.1 (Enterococcus sp.) (assay: cleavage_in_vitro). Conditions: not given.
T1 sequence: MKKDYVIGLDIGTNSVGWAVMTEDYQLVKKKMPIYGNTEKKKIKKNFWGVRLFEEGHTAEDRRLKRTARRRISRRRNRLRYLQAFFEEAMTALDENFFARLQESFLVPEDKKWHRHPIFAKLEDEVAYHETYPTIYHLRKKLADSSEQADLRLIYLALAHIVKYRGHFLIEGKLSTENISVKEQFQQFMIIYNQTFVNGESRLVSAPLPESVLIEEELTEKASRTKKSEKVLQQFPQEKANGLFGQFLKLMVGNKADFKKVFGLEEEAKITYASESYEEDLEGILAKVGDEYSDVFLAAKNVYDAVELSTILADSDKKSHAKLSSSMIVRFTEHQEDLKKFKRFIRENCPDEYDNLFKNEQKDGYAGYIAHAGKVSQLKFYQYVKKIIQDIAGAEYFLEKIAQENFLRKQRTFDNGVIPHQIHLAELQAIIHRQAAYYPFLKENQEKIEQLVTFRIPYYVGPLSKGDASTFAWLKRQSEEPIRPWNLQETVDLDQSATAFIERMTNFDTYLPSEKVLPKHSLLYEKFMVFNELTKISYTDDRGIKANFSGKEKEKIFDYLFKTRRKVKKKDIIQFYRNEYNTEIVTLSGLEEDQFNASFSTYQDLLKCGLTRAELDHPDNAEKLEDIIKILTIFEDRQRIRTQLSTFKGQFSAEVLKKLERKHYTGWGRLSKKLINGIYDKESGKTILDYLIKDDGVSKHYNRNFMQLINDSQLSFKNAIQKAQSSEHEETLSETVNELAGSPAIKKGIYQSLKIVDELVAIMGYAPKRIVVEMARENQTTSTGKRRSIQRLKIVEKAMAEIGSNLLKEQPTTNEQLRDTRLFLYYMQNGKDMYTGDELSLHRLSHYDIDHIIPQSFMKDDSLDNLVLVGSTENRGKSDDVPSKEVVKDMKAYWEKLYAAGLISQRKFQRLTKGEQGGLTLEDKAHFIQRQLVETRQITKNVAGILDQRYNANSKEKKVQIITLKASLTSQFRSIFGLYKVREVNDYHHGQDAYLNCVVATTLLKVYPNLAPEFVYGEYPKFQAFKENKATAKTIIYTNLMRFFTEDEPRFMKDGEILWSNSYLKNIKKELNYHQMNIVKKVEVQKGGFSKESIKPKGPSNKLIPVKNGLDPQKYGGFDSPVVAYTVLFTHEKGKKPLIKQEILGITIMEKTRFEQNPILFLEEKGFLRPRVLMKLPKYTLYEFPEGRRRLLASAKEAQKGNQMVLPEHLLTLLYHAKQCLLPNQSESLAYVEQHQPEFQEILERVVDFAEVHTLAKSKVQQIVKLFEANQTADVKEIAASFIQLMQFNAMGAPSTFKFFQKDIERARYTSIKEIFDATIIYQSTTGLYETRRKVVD

Sequence	activity [% cleaved]
GAGCGGACAGCAGCUUCCUAUAUCUCGUACNNNNNNNNNNNNNNNNNNNNNNNNNGUUUUAGAGUCAUGUUAAAGAACAUAGCAAGUUAAAAUAAGGUUUUAACCGUAAUCAACUGUAAAGUGGCGCUGUUUCGGCGCUUUUUUUGUUU / CAGCGGACAGCAGCTTCCTATATCTCGTAC / GTACGAGATATAGGAAGCTGCTGTCCGCTG [Sequence 1 sgRNA for APG05459.1 ; target mismatch 30]	57
GAGCGGACAGCAGCUUCCUAUAUCUCGUACNNNNNNNNNNNNNNNNNNNNNNNNNGUUUUAGAGUCAUGUUAAAGAACAUAGCAAGUUAAAAUAAGGUUUUAACCGUAAUCAACUGUAAAGUGGCGCUGUUUCGGCGCUUUUUUUGUUU / GAGCGGACAGCACCTTCCTATATCTCGTAC / GTACGAGATATAGGAAGGTGCTGTCCGCTC [Sequence 1 sgRNA for APG05459.1 ; target mismatch 18]	0

Each sequence was assayed on T2, APG08290.1 (Bacillus sp.) (assay: cleavage_in_vitro). Conditions: not given.
T2 sequence: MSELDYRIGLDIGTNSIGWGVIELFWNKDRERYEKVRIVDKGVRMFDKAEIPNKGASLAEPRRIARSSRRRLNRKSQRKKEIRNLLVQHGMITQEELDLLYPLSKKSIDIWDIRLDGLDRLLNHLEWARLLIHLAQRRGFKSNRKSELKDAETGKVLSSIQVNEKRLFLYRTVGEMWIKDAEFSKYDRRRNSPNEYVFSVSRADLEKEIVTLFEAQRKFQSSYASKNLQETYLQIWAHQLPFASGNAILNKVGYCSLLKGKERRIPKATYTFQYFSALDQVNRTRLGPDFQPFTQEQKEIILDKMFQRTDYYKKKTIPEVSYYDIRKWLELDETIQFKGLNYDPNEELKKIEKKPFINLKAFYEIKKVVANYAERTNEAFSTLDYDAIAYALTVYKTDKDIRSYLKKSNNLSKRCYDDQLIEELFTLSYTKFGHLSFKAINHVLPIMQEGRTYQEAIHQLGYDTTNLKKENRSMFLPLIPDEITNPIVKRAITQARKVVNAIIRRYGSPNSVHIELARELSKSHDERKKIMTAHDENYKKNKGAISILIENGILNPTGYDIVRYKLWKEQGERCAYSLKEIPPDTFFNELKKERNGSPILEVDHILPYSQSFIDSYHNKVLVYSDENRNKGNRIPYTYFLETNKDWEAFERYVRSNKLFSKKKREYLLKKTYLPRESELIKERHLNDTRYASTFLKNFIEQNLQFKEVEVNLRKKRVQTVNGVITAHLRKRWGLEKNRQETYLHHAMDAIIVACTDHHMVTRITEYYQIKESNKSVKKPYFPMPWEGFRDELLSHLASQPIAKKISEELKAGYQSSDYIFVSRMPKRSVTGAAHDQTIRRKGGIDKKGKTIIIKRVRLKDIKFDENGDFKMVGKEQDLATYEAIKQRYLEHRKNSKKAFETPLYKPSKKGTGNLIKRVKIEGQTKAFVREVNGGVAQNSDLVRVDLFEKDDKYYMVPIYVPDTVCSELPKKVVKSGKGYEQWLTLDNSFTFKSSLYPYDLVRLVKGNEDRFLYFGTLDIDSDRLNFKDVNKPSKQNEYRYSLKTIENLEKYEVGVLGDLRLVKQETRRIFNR

Sequence	activity [% cleaved]
GAGCGGACAGCAGCUUCCUAUAUCUCGUACNNNNNNNNNNNNNNNNNNNNNNNNNGUCAUAGUUCCAUGAAAGCCAAAAGUGGCUUUGAUGUUUCUAUGAUAAGGGUUUCGGCCCGUGGCGUCGGGGAUCGCCUGCCCAUUCCGAUGGGCUUCUCCCCAUUUAUU / CAGCGGACAGCAGCTTCCTATATCTCGTAC / GTACGAGATATAGGAAGCTGCTGTCCGCTG [Sequence 1 sgRNA for APG08290.1 ; target mismatch 30]	100
GAGCGGACAGCAGCUUCCUAUAUCUCGUACNNNNNNNNNNNNNNNNNNNNNNNNNGUCAUAGUUCCAUGAAAGCCAAAAGUGGCUUUGAUGUUUCUAUGAUAAGGGUUUCGGCCCGUGGCGUCGGGGAUCGCCUGCCCAUUCCGAUGGGCUUCUCCCCAUUUAUU / GAGCGGACAGCACCTTCCTATATCTCGTAC / GTACGAGATATAGGAAGGTGCTGTCCGCTC [Sequence 1 sgRNA for APG08290.1 ; target mismatch 18]	100
GAGCGGACAGCAGCUUCCUAUAUCUCGUACNNNNNNNNNNNNNNNNNNNNNNNNNGUCAUAGUUCCAUGAAAGCCAAAAGUGGCUUUGAUGUUUCUAUGAUAAGGGUUUCGGCCCGUGGCGUCGGGGAUCGCCUGCCCAUUCCGAUGGGCUUCUCCCCAUUUAUU / GAGCGGACAGCAGCTTCCTAAATCTCGTAC / GTACGAGATTTAGGAAGCTGCTGTCCGCTC [Sequence 1 sgRNA for APG08290.1 ; target mismatch 10]	75
GAGCGGACAGCAGCUUCCUAUAUCUCGUACNNNNNNNNNNNNNNNNNNNNNNNNNGUCAUAGUUCCAUGAAAGCCAAAAGUGGCUUUGAUGUUUCUAUGAUAAGGGUUUCGGCCCGUGGCGUCGGGGAUCGCCUGCCCAUUCCGAUGGGCUUCUCCCCAUUUAUU / GAGCGGACAGCAGCTTCCTATAACTCGTAC / GTACGAGTTATAGGAAGCTGCTGTCCGCTC [Sequence 1 sgRNA for APG08290.1 ; target mismatch 8]	0
GAGCGGACAGCAGCUUCCUAUAUCUCGUACNNNNNNNNNNNNNNNNNNNNNNNNNGUCAUAGUUCCAUGAAAGCCAAAAGUGGCUUUGAUGUUUCUAUGAUAAGGGUUUCGGCCCGUGGCGUCGGGGAUCGCCUGCCCAUUCCGAUGGGCUUCUCCCCAUUUAUU / GAGCGGACAGCAGCTTCCTATATCTCGAAC / GTTCGAGATATAGGAAGCTGCTGTCCGCTC [Sequence 1 sgRNA for APG08290.1 ; target mismatch 3]	73
GAGCGGACAGCAGCUUCCUAUAUCUCGUACNNNNNNNNNNNNNNNNNNNNNNNNNGUCAUAGUUCCAUGAAAGCCAAAAGUGGCUUUGAUGUUUCUAUGAUAAGGGUUUCGGCCCGUGGCGUCGGGGAUCGCCUGCCCAUUCCGAUGGGCUUCUCCCCAUUUAUU / GAGCGGACAGCAGCTTCCTATATCTCGTAG / CTACGAGATATAGGAAGCTGCTGTCCGCTC [Sequence 1 sgRNA for APG08290.1 ; target mismatch 1]	0
GAGCGGACAGCAGCUUCCUAUAUCUCGUACNNNNNNNNNNNNNNNNNNNNNNNNNGUCAUAGUUCCAUGAAAGCCAAAAGUGGCUUUGAUGUUUCUAUGAUAAGGGUUUCGGCCCGUGGCGUCGGGGAUCGCCUGCCCAUUCCGAUGGGCUUCUCCCCAUUUAUU / GAGCGGACAGCAGCTTCCTATATCTCGTTC / GAACGAGATATAGGAAGCTGCTGTCCGCTC [Sequence 1 sgRNA for APG08290.1 ; target mismatch 2]	0
GAGCGGACAGCAGCUUCCUAUAUCUCGUACNNNNNNNNNNNNNNNNNNNNNNNNNGUCAUAGUUCCAUGAAAGCCAAAAGUGGCUUUGAUGUUUCUAUGAUAAGGGUUUCGGCCCGUGGCGUCGGGGAUCGCCUGCCCAUUCCGAUGGGCUUCUCCCCAUUUAUU / GAGCGGACAGCAGCTTCCTATATCTGGTAC / GTACCAGATATAGGAAGCTGCTGTCCGCTC [Sequence 1 sgRNA for APG08290.1 ; target mismatch 5]	0
GAGCGGACAGCAGCUUCCUAUAUCUCGUACNNNNNNNNNNNNNNNNNNNNNNNNNGUCAUAGUUCCAUGAAAGCCAAAAGUGGCUUUGAUGUUUCUAUGAUAAGGGUUUCGGCCCGUGGCGUCGGGGAUCGCCUGCCCAUUCCGAUGGGCUUCUCCCCAUUUAUU / GAGCGGACAGCAGCTTCGTATATCTCGTAC / GTACGAGATATACGAAGCTGCTGTCCGCTC [Sequence 1 sgRNA for APG08290.1 ; target mismatch 13]	28
GAGCGGACAGCAGCUUCCUAUAUCUCGUACNNNNNNNNNNNNNNNNNNNNNNNNNGUCAUAGUUCCAUGAAAGCCAAAAGUGGCUUUGAUGUUUCUAUGAUAAGGGUUUCGGCCCGUGGCGUCGGGGAUCGCCUGCCCAUUCCGAUGGGCUUCUCCCCAUUUAUU / GAGCGGACTGCAGCTTCCTATATCTCGTAC / GTACGAGATATAGGAAGCTGCAGTCCGCTC [Sequence 1 sgRNA for APG08290.1 ; target mismatch 22]	100

Same assay, conditions: PAM NNRNCC; NTS cut 4, TS cut 3, 1 nt 5' overhang (Table 3)

Sequence	activity [% cleaved]
GAGCGGACAGCAGCUUCCUAUAUCUCGUACNNNNNNNNNNNNNNNNNNNNNNNNNGUCAUAGUUCCAUGAAAGCCAAAAGUGGCUUUGAUGUUUCUAUGAUAAGGGUUUCGGCCCGUGGCGUCGGGGAUCGCCUGCCCAUUCCGAUGGGCUUCUCCCCAUUUAUU / GAGCGGACAGCAGCTTCCTATATCTCGTAC / GTACGAGATATAGGAAGCTGCTGTCCGCTC [Sequence 1 sgRNA for APG08290.1 ; Sequence 1 target]	95

Same assay, conditions: incompatible PAM

Sequence	activity [% cleaved]
GAGCGGACAGCAGCUUCCUAUAUCUCGUACNNNNNNNNNNNNNNNNNNNNNNNNNGUCAUAGUUCCAUGAAAGCCAAAAGUGGCUUUGAUGUUUCUAUGAUAAGGGUUUCGGCCCGUGGCGUCGGGGAUCGCCUGCCCAUUCCGAUGGGCUUCUCCCCAUUUAUU / GAGCGGACAGCAGCTTCCTATATCTCGTAC / GTACGAGATATAGGAAGCTGCTGTCCGCTC	0
